Target: RBD-VLP (SARS-CoV-2, UniProt P0DTC2 340-538)

B1: FI-3A (antibody, V domains shown)
VH: EVQLLESGGGLIQPGGSLRLSCAASGFTVSSNYMSWVRQAPGKGLEWVSVIYSGGSTYYADSVKGRFTISRDNSKNTLYLQMNSLRAEDTAVYYCARDHVRPGMNIWGQGTMVTVSS
VL: not shown
IC50: 3 nM
